Test results: a protein production outcome set (Wang et al. 2014)

Experiment: label from the status in PepcDB records
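Also: failed if final PepcDB status was selected cloned or expressed and not failed if soluble or beyond.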

| Sequence | protein production |
| --- | --- |
| MSDWPPKPQNEVQNSNNKTGQEWQILEKAVLASVEEQRRTRRWGIFFKFLTFLYLLFVFVLLGRGCTTSESSGGTSSSTAHLAVVNIIGTIDSSNQSVNSEDTNKALERAFEAKNSKAVALNINSPGGSPVQSDEIWQEIRYLKKQHPDKKVYAVIGDMGASGAYYIASAADEIIVNPSSLVGSIGVIMPNYGITGLAQKLGIEDRTLTSGSNKDILSMTKPVNPAQREHIQSVLDNVHAHFINAVKEGRGTRLKSNDPAIFSGLFWTGEQAIQLGVADRTGNLDTLMRELKVENKVNYTIERSPFESILGKMGSELGQGISQSVSQQLKTEQQAKLQ | failed |
| MKCRGHKNSYFCQDSNEIKSANSNSPLCGDHSFFEMATKQRKGSRSSGRNTSSANTRKGGNFLRRIFITPIRDTFSRDKVGFVFGAILLAIALYTTIAIGSFFVHGGVDQSVVRDAPVSDILLGRAPVANLCGIRGAVWSEWLMNGLFGFGTLFLLFCVFSLSLKLMGVVKRISVVKRLIFCGVMTFWTSLAAAFIYKLSGLEGFLRWGGMHGQEWTLFLERNIGKAGLIIVLLVLAVIIAVVVRSECMGFFRRLLGLSWISIPKLPKKERKNNHDESENESLGNGYDTGESENLSGYLNNSEYEDGPAGESADDPDDYIPPHKEEGENDSSQSIQMGSMTVELAQEEEKADEALLAEIKTDPRMDLASYKFPSVDLLTQYDLQQPPIDMNEIEENQKRIIATLDSFKIHVTPIKATVGPTVTLYEVAPDSGIKISRIRNLEDDIAMSLKAVGGIRIIAPMPGKGTIGIEVPNRKPQTVSMYSVLTSKKYQESDMDLPVALGKTITNEVFIFDLCKMPHLLIAGATGQGKSVGLNAMITSLLYKKHPAELKFVLVDPKMLEFAVYEAIERHYLAKLPDEDRAIVTDMTKVVPTLNSLCIEMDNRYRMLTEARVRNIKEYNDQIISGKLSRLHGHKFLPYIVLIVDEFADLIMTSGKEVERPITRIAQKARAAGIHMVVATQRPSTDIITGIIKANFPARIAFKVFSMIDSRTILDQPGANQLVGRGDMLFYQGKDTVRLQCAFLDTPECEAVTHHISLQESYTSAYELPEYVPEGEEGGPKAFNPQEKDPLFEEVARMVVNSQQGSTSNIQRKFNIGYNRAGRLMDQLEGAGIVSPQDGSKPRQVLIQDEMSLERLFETLR | failed |
| MADSRQAQGPGKSVLGIGQRIVTIIVEMVETRLRLAVVELEEEKANLFQLLLMVGLTMLFAAFGLMSLMVLVIWAIDPQYRLNAMIATTVVLLVLALIGGIWTLRKARQSTLLRHTRHELANDRQILEDDQS | failed |
| MMNDYLNFLDGRVSVRRFDPDAVLPNDLIKDMLEHASYAPSGNNFQPWRVVVVKNKNKQEDLKKLAALQPQVATASAVFLLFGDENAYDLTWWQEFHVQKGIITKDEAAARAERIRQYFDLHPEDKETQGLRLDVGLFAMNLMQVVRVYGYDSVPMRGVDFDAIKTYLDMPNGWEPILMLPVGKALQAGNPHVRKSVAEFAEIIE | not failed |
| HTYKSLFVAPCDAGVKSIKDLKGKSVAFVDPASTSGGLMPTYMVKKETGMMPQQFFGKFTYSGSHDAAELAVKNKTVDAAADNDITYEKMLAKGLITKETNCVVKESDPLPGSPLVYRKDLPAATKKKIRDAILNAH | failed |
| SDMVAQALELSRKPHVVIATPGRLADHLRSSNTFSIKKIRFLVMDEADRLLEQGCTDFTVDLEAILAAVPARRQTLLFSATLTDTLRELQGLATNQPFFWEAQAPVSTVEQLDQRYLLVPEKVKDAYLVHLIQRFQDEHEDWSIIIFTNTCKTCQILCMMLRKFSFPTVALHSMMKQKERFAALAKFKSSIYRILIATDVASRGADQPPLPPGAWTSLRYRWSSTTTPPGSPRSTSTESAGRPVQGGRVRPSRW | not failed |
| MSFGNEKGQDIIHRKEVEFFVKNLKDYFSNINKYVVILWDEEGIILEFKENGGNLLGYTPEQIEGKKWPDILTDGKDKEQTTEINKKLVNSKIVRYYINSIKDVNGTSKIFLWCNLKLENVQSDKKIFLSVGFNLDSIDNLKEKTDESKFELDTLNEKKENLEFKVTKDDLILKQKDDTIRDYKSKLEFLAFYDELTGLPNKNSLIRWLNLKVSQMDCIDTYLIFLEVRDLEKLNVTYGYDLVDELIIHISKRIKDIAGEGNKAFKIGFDRFAIICKSENISDFIERMLSQLLLPYNVNGNLIRVNFNIGAAQIENSNEAAANLMRRCDLALIKAKEEGLNEYVIFKPSIEIQTLKEGILERELRNGIELNEFIVFYQPFVKLENDKICGFEALLRWYYLKSVFVSPLEFIPVAEKYGLIIDLGNMVLKQSLKAGKILKKYYDDEFTISINISPKQFIDKRFVKNTIEILENEKLQDIRLRFEITEKVAIENIDYTIRIMNEFKKYNVTFALDDFGVEYSSLNYLRKLPIEAVKIDKSFVQDINDHDTYFIVETIVKLCKKLNLKTVIEGVETQRQYQIIKELGCDYAQGYFIAKPLPINELINLVGKYKILE | failed |
| MQLSIEEVKKLDSNSYQIIDIRSEEEVAHGAIKGALNIQAEEIESDERVPHDKKLVIVCSRGKTSVDVAEYLTEKGFDAASLKGGYISWLLDAMKEDEVAERDIKADVEQSIRKKFKKSIWRKFTKAINTYELVKPGDKIAVCISGGKDSMLMAKLFQELKHHNKFDFDVKFLVMDPGYNEANRHVIEENCRNLGIPATIFESDIFDAVYDIEKSPCYLCARMRRGHLYAFAKELGCNKIALGHHYDDVIETILMGMLYGAQVQTMMPKLHSTNFEGMELIRPLYLVREDDIKAWRDYNGLHFIQCACKFTDTCTTCNNEENRSKRVEIKQLIANLKKVNPFVEANIFKSVENVNLATVVAYKKDGIKHSFLDHYDE | failed |
| MADKQPAVNRVVAALLVGGALIAAGYAIRHTVSCFLLSFVTAYLLDPVLVVMERRGVRRPWGILFLYALLAVFSVFFFIVLVPFLSLRWEAFITGLPAYLQKGKQIVFAWKSRAVPPYAVEEWRWLFDTAAGQADKLLAKLGAGVYAAAEGLVFNLFNLVLAPILVFFMLWYKKEFMETAAAWLPASRREVLLALGREVNESIGGYIRGQFMVSVIVAVLSTVALFVIGIDYPIVNGIFAGLASVLPFIGVILATLPPLFFAYVQYESGMVLLQVIGAFSVIYFLEGYLVKPLVFKESMDLNPLVTIIVVMVFGELMGFWGILLAIPIAAAVRAAADHLRRGDFRS | failed |
| MNGSNHMKNKTLVISGATRGIGKAIFVRFAQSGVNIAFTYNKNVEEANKIIEDVEQKYSIKAKAYSLNVLEPEQYTELFKQIDADFDRVDFFISNAIIYGRSVVGGFAPFMRLKPKGLNNIYTATVLAFVVGAQEAAKRMQKIGGGAIVSLSSTGNLVYMPNYAGHGNSKNAVETMVKYAAVDLGEFNIRVNAVSGGPIDTDALKAFPDYVEIKEKVEEQSPLKRMGNPNDLAGAAYFLCDETQSGWLTGQTIVVDGGTTFK | failed |
| MRPAHICLAVLVAAVWGVNFTVIEVGLAHFPPLLFSALRFLAAALPAVFFVGRPKVAWKWIVAVGLVLGVAKFGLLFIGMDAGMPAGLSSLVLQIQAVFTALIAFAALGERPTGIRLAGMAVALCGVGLAAVDEGTGGPLGAFALVIGAAVCWGASNVLTRKASPPDPLNFMVWVSTVPVVPLLGLSLLTEGPSADLNALGSLDWQGAGVILYVAWITTVFGFGAWGWLLHRHPASTVAPFSLLVPVFGMSSAALFLGEPIGPMRWGAAALLAGGVALTSLAPGKERSGGPNTLDLRGVGIHEAGR | failed |
| MSLSTMLVAEDLSAVGGISLSSALPVLTAMQYDVAALPTSLLSTHTSGYGTPAVVDLSTWLPQVFAHWTRAQLHFDQALIGYVGSVALCQQITTYLEQQTLSLLVVDPVLGDLGQLYQGFDQDYVAAMRQLIQQADVILPNTTEAALLTGAPYQVTPDLEVILPALQAQLKTGAHAVITDVQRADQIGCAWLDEAGHVQYCGARRLPGHYNGTGDTLAAVIAGLLGRGYPLAPTLARANQWLNMAVAETIAQNRTDDRQGVALGDLLQAILALNEGHHHHHH | not failed |
| MRAQMKQYNCHEGALPFTKSYLLRPLFNAFLMSPKPFHTTEACIGCKKCEKVCPVGNITVTDRPVWGGNCTQCLACYHVCPVHAVEYLEHHHHHH | failed |
| MGHHHHHHSHMEFIVDSVDKTMHIGRQLGSLVNKGDILCLTGDLGTGKTHISKGIAEGLGIDEHITSPTFNIVNEYHSGRLTLYHFDVYRVNDPDEIEAIGFDEYIFGDGVSLIEWANYIEELIPEEYIHIKIEKLPDMGENFRKITINGYGDRYNYIKEIKE | failed |
| MTDRIMALVDGSGFSRSVCLHAAWLAQRLELPVDLLHVLGRREAADRGDLSGALQLGARTALLEELAALDAERARLAQAQGRAILEDAQAILAAESVETTPHLRQGDLIDTVAGFERSGRALVVGKRGRAAGFASAHLGSNLERLLRASKLPVLIVPADCR | failed |
